Results: paper PMC5599688

What was measured:
[1] = biological target: calnexin (rat brain) (rat (endogenous in brain)) (UniProt P35565); test: co-IP; 10% rat brain homogenate (also NEC versus GAERS brain) in 50 mM TrisHCl pH 8.0, 300 mM NaCl, 0.5% Triton X100, 0.5% DOC; rabbit polyclonal anti-CNX overnight at 4 °C, Sepharose G beads; blotted for Cav3.2; signal normalised to precipitated calnexin
[2] = biological target: calnexin in tsA-201 cells (not stated (endogenous human in tsA-201, or transfected mouse cDNA)) (UniProt P27824)
[3] = biological target: GFP-tagged III-IV linker of rat Cav3.2 without exon 25, wild type (rat); test: co-IP; tsA-201 cells 72 h after transfection, NP40 lysis buffer; precipitated with anti-GFP (GFP-tagged Cav3.2 regions), blotted with anti-mCherry; densitometry normalised to expression levels
[4] = biological target: GFP-tagged III-IV linker of human Cav3.2 with R1573P (human) (UniProt O95180); test: as above
[5] = biological target: GFP-tagged III-IV linker of rat Cav3.2 with exon 25, GAERS mutation R1584P (rat); test: as above
[6] = biological target: GFP-tagged III-IV linker of rat Cav3.2 without exon 25, GAERS mutation R1584P (rat); test: as above
GFP-tagged III-IV linker of rat Cav3.2 without exon 25, GAERS mutation R1584P (rat), sequence (Q9EQ60 whole entry R1584P): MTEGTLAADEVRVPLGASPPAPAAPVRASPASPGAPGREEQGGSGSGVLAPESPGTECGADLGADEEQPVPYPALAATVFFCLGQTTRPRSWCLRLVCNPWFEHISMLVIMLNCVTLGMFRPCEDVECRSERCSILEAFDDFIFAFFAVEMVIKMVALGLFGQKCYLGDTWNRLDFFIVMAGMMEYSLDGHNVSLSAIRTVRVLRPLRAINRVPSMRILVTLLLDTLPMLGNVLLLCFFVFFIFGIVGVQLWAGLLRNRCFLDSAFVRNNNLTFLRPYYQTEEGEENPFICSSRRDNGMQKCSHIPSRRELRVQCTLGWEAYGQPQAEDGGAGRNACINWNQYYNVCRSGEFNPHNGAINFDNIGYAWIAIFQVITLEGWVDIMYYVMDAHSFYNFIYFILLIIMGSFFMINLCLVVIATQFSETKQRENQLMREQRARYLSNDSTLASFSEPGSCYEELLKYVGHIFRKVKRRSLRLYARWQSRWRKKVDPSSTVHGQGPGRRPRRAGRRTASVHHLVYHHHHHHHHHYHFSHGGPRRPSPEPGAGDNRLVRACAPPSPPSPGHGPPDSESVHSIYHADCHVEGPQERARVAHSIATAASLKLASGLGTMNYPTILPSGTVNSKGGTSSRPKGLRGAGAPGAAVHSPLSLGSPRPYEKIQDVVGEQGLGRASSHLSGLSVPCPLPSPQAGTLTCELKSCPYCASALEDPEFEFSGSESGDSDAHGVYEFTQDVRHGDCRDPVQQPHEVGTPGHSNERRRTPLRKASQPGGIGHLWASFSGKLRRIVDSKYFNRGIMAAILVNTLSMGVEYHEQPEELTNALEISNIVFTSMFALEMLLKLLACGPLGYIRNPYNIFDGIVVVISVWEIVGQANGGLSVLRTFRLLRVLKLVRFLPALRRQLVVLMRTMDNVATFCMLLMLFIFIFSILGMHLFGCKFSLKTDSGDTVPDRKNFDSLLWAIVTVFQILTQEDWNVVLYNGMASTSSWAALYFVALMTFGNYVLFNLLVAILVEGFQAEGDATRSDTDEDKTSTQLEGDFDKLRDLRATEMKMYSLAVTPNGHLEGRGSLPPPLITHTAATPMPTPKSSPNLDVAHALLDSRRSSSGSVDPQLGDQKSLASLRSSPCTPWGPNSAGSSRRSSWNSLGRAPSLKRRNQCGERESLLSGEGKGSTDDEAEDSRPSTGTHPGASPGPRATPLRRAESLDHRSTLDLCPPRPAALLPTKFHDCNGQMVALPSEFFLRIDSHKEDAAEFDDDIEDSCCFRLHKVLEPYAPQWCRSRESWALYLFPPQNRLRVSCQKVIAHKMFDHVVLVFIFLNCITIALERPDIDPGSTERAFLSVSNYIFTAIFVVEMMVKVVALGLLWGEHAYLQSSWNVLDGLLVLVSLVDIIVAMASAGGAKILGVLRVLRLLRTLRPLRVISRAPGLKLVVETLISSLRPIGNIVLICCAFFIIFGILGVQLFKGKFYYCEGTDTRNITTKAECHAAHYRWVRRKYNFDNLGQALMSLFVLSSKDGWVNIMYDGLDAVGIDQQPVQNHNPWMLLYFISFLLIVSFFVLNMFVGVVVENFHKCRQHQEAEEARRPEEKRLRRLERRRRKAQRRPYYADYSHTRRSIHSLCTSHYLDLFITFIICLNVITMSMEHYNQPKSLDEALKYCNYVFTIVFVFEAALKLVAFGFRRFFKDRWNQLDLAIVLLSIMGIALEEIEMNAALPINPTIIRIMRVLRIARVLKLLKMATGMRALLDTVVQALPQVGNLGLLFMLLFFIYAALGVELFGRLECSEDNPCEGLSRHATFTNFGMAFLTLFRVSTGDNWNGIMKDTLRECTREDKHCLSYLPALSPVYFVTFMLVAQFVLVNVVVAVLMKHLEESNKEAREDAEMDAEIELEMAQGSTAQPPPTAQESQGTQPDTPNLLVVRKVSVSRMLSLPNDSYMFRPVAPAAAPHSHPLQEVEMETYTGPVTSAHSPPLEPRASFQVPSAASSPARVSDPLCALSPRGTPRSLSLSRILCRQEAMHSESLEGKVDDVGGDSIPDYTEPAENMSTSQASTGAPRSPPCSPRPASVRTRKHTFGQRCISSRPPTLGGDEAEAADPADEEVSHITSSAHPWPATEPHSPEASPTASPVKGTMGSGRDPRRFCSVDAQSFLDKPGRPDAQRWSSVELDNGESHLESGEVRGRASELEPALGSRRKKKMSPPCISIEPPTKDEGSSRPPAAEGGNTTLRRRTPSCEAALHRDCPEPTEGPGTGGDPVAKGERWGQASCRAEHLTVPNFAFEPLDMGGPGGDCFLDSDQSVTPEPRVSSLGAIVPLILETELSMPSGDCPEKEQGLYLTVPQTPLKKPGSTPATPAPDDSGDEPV

UniProt P27824, sequence (P27824 21-592): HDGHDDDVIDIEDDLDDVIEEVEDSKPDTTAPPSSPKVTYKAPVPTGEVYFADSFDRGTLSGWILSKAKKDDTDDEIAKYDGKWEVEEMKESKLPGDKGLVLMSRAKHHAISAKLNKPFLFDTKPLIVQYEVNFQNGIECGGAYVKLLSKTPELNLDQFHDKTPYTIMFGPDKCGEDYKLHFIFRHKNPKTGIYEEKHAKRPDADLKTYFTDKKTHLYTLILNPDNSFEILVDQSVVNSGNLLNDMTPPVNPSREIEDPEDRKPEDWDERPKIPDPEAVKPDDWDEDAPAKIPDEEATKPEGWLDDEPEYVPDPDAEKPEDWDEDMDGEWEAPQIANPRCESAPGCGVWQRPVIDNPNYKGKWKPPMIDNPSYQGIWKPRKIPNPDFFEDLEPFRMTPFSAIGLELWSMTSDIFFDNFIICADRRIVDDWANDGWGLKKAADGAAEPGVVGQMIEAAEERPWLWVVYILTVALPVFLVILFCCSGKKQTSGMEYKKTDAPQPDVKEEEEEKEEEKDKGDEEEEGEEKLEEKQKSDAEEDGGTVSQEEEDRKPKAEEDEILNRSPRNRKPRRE
GFP-tagged III-IV linker of rat Cav3.2 without exon 25, wild type (rat), sequence (Q9EQ60 whole entry, stated change not applied): as the sequence (Q9EQ60 whole entry R1584P) above, with P1584R counted along it
GFP-tagged III-IV linker of rat Cav3.2 with exon 25, GAERS mutation R1584P (rat), sequence (Q9EQ60 whole entry R1584P): as the sequence (Q9EQ60 whole entry R1584P) above
UniProt P35565, sequence (P35565 21-591): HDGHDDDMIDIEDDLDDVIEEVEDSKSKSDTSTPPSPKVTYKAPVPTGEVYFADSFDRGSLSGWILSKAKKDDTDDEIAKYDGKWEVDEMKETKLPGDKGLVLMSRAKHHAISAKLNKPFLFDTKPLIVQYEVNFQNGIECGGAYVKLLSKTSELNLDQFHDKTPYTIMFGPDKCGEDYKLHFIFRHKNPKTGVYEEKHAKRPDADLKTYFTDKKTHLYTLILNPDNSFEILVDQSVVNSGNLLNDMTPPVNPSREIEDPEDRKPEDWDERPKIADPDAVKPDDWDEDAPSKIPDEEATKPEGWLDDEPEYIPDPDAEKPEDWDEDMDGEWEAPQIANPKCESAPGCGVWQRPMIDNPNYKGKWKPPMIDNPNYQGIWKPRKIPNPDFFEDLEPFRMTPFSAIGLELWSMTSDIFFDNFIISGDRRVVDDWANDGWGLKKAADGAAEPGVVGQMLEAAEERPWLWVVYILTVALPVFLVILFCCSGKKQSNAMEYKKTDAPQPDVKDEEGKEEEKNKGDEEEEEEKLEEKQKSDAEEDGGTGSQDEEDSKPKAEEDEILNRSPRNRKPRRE

“Cav3.2 T-type calcium channel of GAERS brain (R1584P), Q9EQ60 1-2359” gave a decrease of Cav3.2 co-immunoprecipitated with calnexin, GAERS against NEC brain [1] of 42%.

“HA-tagged human Cav3.2 channel, O95180 1-2353” was tested, and the mean peak Ba2+ current density at −20 mV, tsA-201 cells expressing HA-hCav3.2 with the soluble calnexin C-tail CNX^CD against control cells (increase) [2] was 76% and the surface expression of HA-tagged Cav3.2 by immunostaining, tsA-201 cells expressing the calnexin C-tail CNX^CD against control cells (increase) [2] was 30%.

For “mCherry-tagged calnexin lacking the luminal domain (CNX^BD) (from UniProt P35564 483-591) (domain or fragment)”, the decrease of binding against wild-type rIII-IV (+25) [3] was 75%, the decrease of co-immunoprecipitated calnexin C-tail against the wild-type III-IV linker [4] was 70% and the decrease of binding against wild-type rIII-IV (+25) [5] was 82%. The additional decrease of binding (reference unclear: printed as against wild-type rIII-IV (+25)) [6] was 69%.
